Data reported in paper PMC3904827, “Segmental Helical Motions and Dynamical Asymmetry Modulate Histidine Kinase Autophosphorylation” (PLoS Biology, 2014).

Legend:
[1] = biological target: the molecule itself; assay: crystal structure; dimers to tetramer (dimer of dimers) as seen in the hexagonal and monoclinic crystal forms; vapor diffusion at 18°C, protein at ~15 mg/ml
[2] = biological target: the molecule itself; assay: crystal structure; monomers to homodimer; vapor diffusion at 18°C, protein at ~15 mg/ml, in complex with nucleotides; five crystal forms (C222_(1), P3_(1)21, P6_(1)22, C2, I2)

| Protein | stoichiometry N [1] | stoichiometry N [2] |
| --- | --- | --- |
| full cytoplasmic region of E. coli CpxA (CpxAHDC), wild type (domain or fragment, Escherichia coli, UniProt P0AE82 188-457, looked up, Sensor histidine kinase CpxA, Escherichia coli, full cytoplasmic region: HAMP domain (residues 188-237) and DHp and CA domains (residues 238-457); The trigonal (4BIV) and hexagonal (4CB0) crystals were grown from seleno-methionyl protein; Crystallised with ADP or ATP; also called CpxA transmitter core; wild-type CpxAHDC; source: SeMet protein from E. coli B834 (DE3)) KPARKLKNAADEVAQGNLRQHPELEAGPQEFLAAGASFNQMVTALERMMTSQQRLLSDISHELRTPLTRLQLGTALLRRRSGESKELERIETEAQRLDSMINDLLVMSRNQQKNALVSETIKANQLWSEVLDNAAFEAEQMGKSLTVNFPPGPWPLYGNPNALESALENIVRNALRYSHTKIEVGFAVDKDGITITVDDDGPGVSPEDREQIFRPFYRTDEARDRESGGTGLGLAIVETAIQQHRGWVKAEDSPLGGLRLVIWLPLYKRS | 4 | 2 |
| point mutant CpxA_(HDC_M228V) of the full cytoplasmic region of E. coli CpxA (domain or fragment, Escherichia coli, UniProt P0AE82 188-457, looked up, Sensor histidine kinase CpxA, Escherichia coli, full cytoplasmic region (HAMP 188-237, DHp and CA 238-457) with the point mutation Met228-Val in the HAMP domain; Probably made like wild-type CpxAHDC (His-tagged, pET28a+, E. coli, IMAC and gel filtration), but the methods describe only the CpxAHDC construct; Crystallised with AMPPNP or ADP; also called CpxAHDC Met228-Val; source: purified protein) KPARKLKNAADEVAQGNLRQHPELEAGPQEFLAAGASFNQVVTALERMMTSQQRLLSDISHELRTPLTRLQLGTALLRRRSGESKELERIETEAQRLDSMINDLLVMSRNQQKNALVSETIKANQLWSEVLDNAAFEAEQMGKSLTVNFPPGPWPLYGNPNALESALENIVRNALRYSHTKIEVGFAVDKDGITITVDDDGPGVSPEDREQIFRPFYRTDEARDRESGGTGLGLAIVETAIQQHRGWVKAEDSPLGGLRLVIWLPLYKRS | 4 | 2 |
